Literature values in patent US8865021B2, “Compositions of lipids and cationic peptides” (Camurus AB, priority 2003, dated 2014).
Residues, ends and D or L forms follow the SMILES beside them. No end group written: not given here.

B1: IL-19 (protein, UniProt Q9UHD0 25-177, looked up)
Interleukin-19: LRRCLISTDMHHIEESFQEIKRAIQAKDTFPNVTILSTLETLQIIKPLDVCCVTKNLLAFYVDRVFKDHQEPNPKILRKISSIANSFLYMQKTLRQCQEQRQCHCRQEATNATRVIHDNYDQLEVHAAAIKSLGELDVFLAWINKNHEVMFSA
notes: Melanoma differentiation associated protein-like protein
B2: Interferon-alpha 1/13 (protein, UniProt P01562 24-189, looked up)
Interferon alpha-1/13: CDLPETHSLDNRRTLMLLAQMSRISPSSCLMDRHDFGFPQEEFDGNQFQKAPAISVLHELIQQIFNLFTTKDSSAAWDEDLLDKFCTELYQQLNDLEACVMQEERVGETPLMNADSILAVKKYFRRITLYLTEKKYSPCAWEVVRAEIMRSLSLSTNLQERLRRKE
B3: IL-11 (protein, UniProt P20809 22-199, looked up)
Interleukin-11: PGPPPGPPRVSPDPRAELDSTVLLTRSLLADTRQLAAQLRDKFPADGDHNLDSLPTLAMSAGALGALQLPGVLTRLRADLLSYLRHVQWLRRAGGSSLKTLEPELGTLQARLDRLLRRLQLLMSRLALPQPPPDPPAPPLAPPSSAWGGIRAAHAILGGLHLTLDWAVRGLLLLKTRL
B4: Filgrastim (protein, UniProt P09919 31-207, looked up)
Granulocyte …: TPLGPASSLPQSFLLKCLEQVRKIQGDGAALQEKLVSECATYKLCHPEELVLLGHSLGIPWAPLSSCPSQALQLAGCLSQLHSGLFLYQGLLQALEGISPELGPTLDTLQLDVADFATTIWQQMEELGMAPALQPTQGAMPAFASAFQRRAGGVLVASHLQSFLEVSYRVLRHLAQP
modifications: N-terminal methionine, non-glycosylated
notes: neutropenia
B5: human Chorionic Gonadotropin-beta (protein, UniProt P0DN86 21-165, looked up)
Choriogonadotropin subunit …: SKEPLRPRCRPINATLAVEKEGCPVCITVNTTICAGYCPTMTRVLQGVLPALPQVVCNYRDVRFESIRLPGCPRGVNPVVSYAVALSCQCALCRRSTTDCGGPKDHPLTCDDPRFQDSSSSKAPPPSLPSPSRLPGPSDTPILPQ
notes: Infertility
B6: IL-26 (protein, UniProt Q9NPH9 22-171, looked up)
Interleukin-26: KHKQSSFTKSCYPRGTLSQAVDALYIKAAWLKATIPEDRIKNIRLLKKKTKKQFMKNCQFQEQLLSFFMEDVFGQLQLQGCKKIRFVEDFHSLRQKLSHCISCASSAREMKSITRMKRIFYRIGNKGIYKAISELDILLSWIKKLLESSQ
B7: IL-24 (protein, UniProt Q13007 52-206, looked up)
Interleukin-24: QEFHFGPCQVKGVVPQKLWEAFWAVKDTMQAQDNITSARLLQQEVLQNVSDAESCYLVHTLLEFYLKTVFKNYHNRTVEVRTLKSFSTLANNFVLIVSQLQPSQENEMFSIRDSAHRRFLLFRRAFKQLDVEAALTKALGEVDILLTWMQKFYKL
notes: Melanoma differentiation associated protein 7
B8: Interferon-gamma (protein, UniProt P01579 24-161, looked up)
Interferon gamma: QDPYVKEAENLKKYFNAGHSDVADNGTLFLGILKNWKEESDRKIMQSQIVSFYFKLFKNFKDDQSIQKSVETIKEDMNVKFFNSNKKKRDDFEKLTNYSVTDLNVQRKAIHELIQVMAELSPAAKTGKRKRSQMLFRG

Details: Table 2

Compared with `CC[C@H](C)[C@@H]1NC(=O)[C@H](Cc2ccc(O)cc2)NC(=O)[C@@H](N)CSSC[C@@H](C(=O)N2CCC[C@H]2C(=O)N[C@@H](CC(C)C)C(=O)NCC(N)=O)NC(=O)[C@H](CC(N)=O)NC(=O)[C@H](CCC(N)=O)NC1=O` [Oxytocin, reference compound], `CC(C)[C@@H]1NC(=O)[C@H](CCCNC(=N)N)NC(=O)[C@H](Cc2ccccc2)NC(=O)[C@@H](NC(=O)[C@H](Cc2c[nH]c3ccccc23)NC(=O)[C@H](CCCNC(=N)N)NC(=O)[C@@H](N)CCCNC(=N)N)CSSC[C@@H](C(=O)N[C@@H](CCCNC(=N)N)C(N)=O)NC(=O)[C@H](CCCCN)NC(=O)[C@H](CCCNC(=N)N)NC(=O)[C@H](Cc2ccc(O)cc2)NC(=O)[C@@H]2CSSC[C@H](NC1=O)C(=O)N[C@@H](Cc1ccc(O)cc1)C(=O)N[C@@H](CCCCN)C(=O)NCC(=O)N[C@@H](Cc1ccccc1)C(=O)N2` [Polyphemusin II] (HELM PEPTIDE1{R.R.W.C.F.R.V.C.Y.K.G.F.C.Y.R.K.C.R.[am]}$PEPTIDE1,PEPTIDE1,4:R3-17:R3|PEPTIDE1,PEPTIDE1,8:R3-13:R3$$$V2.0) is higher in “Isoelectric pH” value: 5.51 pH for the first, 10.1 pH for the second.

First: NC(=O)CC[C@@H]1NC(=O)[C@H](Cc2ccccc2)NC(=O)[C@H](Cc2ccc(O)cc2)NC(=O)[C@@H](N)CSSC[C@@H](C(=O)N2CCC[C@H]2C(=O)N[C@@H](CCCN=C(N)N)C(=O)NCC(N)=O)NC(=O)[C@H](CC(N)=O)NC1=O [Vassopresin, reference compound]
Second: Alteplase
The “Isoelectric pH” value of the first is higher: 8.06 pH for the first, 7.61 pH for the second.

Compared with Becaplermin, “Calcitonin (salmon) [reference compound]” is lower in “Isoelectric pH” value: 9.38 pH for the first, 8.86 pH for the second.

Going from Follitropin-beta to GMCSF, the “Isoelectric pH” value falls from 5.91 pH to 5.21 pH.

First: IL-1 beta
Second: IL-1alpha
The “Isoelectric pH” value of the first is higher: 5.91 pH for the first, 5.3 pH for the second.

Going from IL-4 to IL-5, the “Isoelectric pH” value falls from 9.26 pH to 7.02 pH.

Going from IL-6 to IL-7, the “Isoelectric pH” value rises from 6.21 pH to 8.72 pH.

Going from IL-8 to IL-10, the “Isoelectric pH” value falls from 9.24 pH to 7.63 pH.

Compared with IL-13, IL-15 is lower in “Isoelectric pH” value: 8.81 pH for the first, 4.52 pH for the second.

Compared with IL-17, IL-18 is lower in “Isoelectric pH” value: 8.62 pH for the first, 5.04 pH for the second.

First: Indolicidin (ILPWKWPWWPWRR; ends and bridges not checked; UniProt P33046 131-143, looked up) [Indolicidin (e.g. bovine), antibacterial, antifungal, anticancer, antiviral, antiparasite]
Second: Insulin α
The “Isoelectric pH” value of the first is higher: 12.01 pH for the first, 3.79 pH for the second.

Compared with Intercellular Adhesion Molecule 1, Interleukin-1 receptor antagonist is lower in “Isoelectric pH” value: 9.51 pH for the first, 8.51 pH for the second.

Compared with Lepirudin, Magainin I is higher in “Isoelectric pH” value: 4.04 pH for the first, 10 pH for the second.

First: Magainin II
Second: Mellitin
The “Isoelectric pH” value of the first is lower: 10 pH for the first, 12.02 pH for the second.

Going from OspA to Pneumadin, the “Isoelectric pH” value falls from 6.72 pH to 4.36 pH.

Going from “Polyphemusin I (RRWCFRVCYRGFCYRKCR; ends and bridges not checked; cysteine pairing not given here; UniProt P14215 1-18, looked up) [antibacterial, antifungal, antiviral]” to Protegrin [Protegrin (e.g. swine)], the “Isoelectric pH” value rises from 10.33 pH to 10.66 pH.

First: Secretin (HSDGTFTSELSRLRDSARLQRLLQGLV; ends and bridges not checked; UniProt P63298 33-59, looked up) [Secretin (e.g. swine), pancreatic assessment, 27 amino acids, reference compound]
Second: Somatostatin [Somatostatin (& analogues), reference compound]
The “Isoelectric pH” value of the first is lower: 9.45 pH for the first, 9.58 pH for the second.

Going from Somatotropin to “Tachyplesin I (KWCFRVCYRGICYRRCR; ends and bridges not checked; cysteine pairing not given here; UniProt P14213 24-40, looked up) [antibacterial, antiviral, 17 amino acids]”, the “Isoelectric pH” value rises from 5.27 pH to 9.93 pH.

Compared with Tuftsin, B1 is lower in “Isoelectric pH” value: 11 pH for the first, 7.8 pH for the second.

Going from B2 to B3, the “Isoelectric pH” value rises from 5.18 pH to 11.16 pH.

Going from B4 to B5, the “Isoelectric pH” value rises from 5.43 pH to 8.65 pH.

Going from B6 to B7, the “Isoelectric pH” value falls from 9.99 pH to 8.6 pH.

In the case of B8, the “Isoelectric pH” value is given as 9.54 pH.

Same assay, conditions: approximate values

In the case of `NC(=O)CC[C@@H]1NC(=O)[C@H](Cc2ccccc2)NC(=O)[C@H](Cc2ccc(O)cc2)NC(=O)[C@@H](N)CSSC[C@@H](C(=O)N2CCC[C@H]2C(=O)N[C@@H](CCCN=C(N)N)C(=O)NCC(N)=O)NC(=O)[C@H](CC(N)=O)NC1=O` [Vassopresin, reference compound], the isoelectric point is listed as “around 8.0 pH”.
For “Calcitonin (salmon) [reference compound]”, the isoelectric point is listed as roughly 8.9 pH.
For Insulin α, the isoelectric point is given as “around 4 pH”.
In the case of Lepirudin, the isoelectric point is given as “around 4 pH”.
For octreotide [reference compound], the isoelectric point is given as “around 8.0 pH”.

Details: salmon vs human calcitonin

For “Calcitonin (salmon) [reference compound]”, the “potency by weight relative to the human hormone” value is listed as “around 50 times”.
